# Assay results from US6866997.
# Tests used:
# [1] = target: Zif268 DNA-binding domain finger 3 Asp2Ala finger 3 helix position 2 D to A (UniProt P08046); conditions: about four-fold reduced affinity versus wild-type Zif268; phage ELISA, Zn, 20 C
# [2] = target: F2-Arg finger 3 Asp2Ala finger 3 helix position 2 D to A (synthetic) (UniProt P08046); conditions: about four-fold reduced affinity versus F2-Arg; phage ELISA, Zn, 20 C
# [3] = system: anti-ras optimised zinc finger peptide (F1 position +3 Asn) (synthetic); conditions: apparent Kd; phage display, Zn
# [4] = system: anti-ras lead zinc finger peptide (designed) (synthetic); conditions: apparent Kd; phage display
sequence,measurement,setting,value
GCGTGGGCG (double strand) [Zif268 consensus site],binding signal,[1],4 fold
GCGGTGGCG (double strand) [F2-Arg consensus site],binding signal,[2],4 fold
GACGGCGCC (double strand),Kd,[3],3 nM
same,Kd,[4],17 nM
